Results reported in patent US20120156193A1 (IMMUNAS PHARMA, published 2012).

target: T1, A beta 1-40 oligomer (synthetic A beta1-40, HCl form, 0.1 mg/ml in PBS, incubated at 37 degrees C for one … (UniProt P05067 672-711)); assay: SPR, Biacore 3000, A beta oligomer on CM5 chip, antibody as analyte
T1 construct: domain: A beta 1-40; Non-fibrous assembly of many copies of the same peptide; also called A beta oligomer
Procedure: The analysis was carried out by Surface Plasmon Resonance (SPR) using Biacore 3000 (GE Healthcare Sciences).

| Binder | Kd [nM] | koff [s⁻¹] | kon [M⁻¹ s⁻¹] |
| --- | --- | --- | --- |
| IR-003 antibody (antibody, V domains shown, Mouse monoclonal from a hybridoma (BALB/c); constant regions are not) VH: QVTLKESGPGILQPSQTLSLTCSFSGFSLSTSGMGVSWIRQPSGKGLEWLAHIYWDDDKRYNPSLKSRLTISKDTSSNQVFLKITSVDTADTATYYCARRGEVRRRGYYAMDYWGQGTSVTVSS VL: DVVMTQTPLSLPVSLGDQASISCRSSQSLVHSNGNTYLHWYLQKPGQSPKLLIYKVSNRFSGVPDRFSGSGSGTDFTLKISRVEAEDLGVYFCSQSTHVPLTFGAGTKLELK | 24.5 | 0.00232 | 94800 |
| IR-091 antibody (antibody, V domains shown, Mouse monoclonal from a hybridoma) VH: QVTLKESGPGILKPSQTLSLTCSFSGFSLSTSGMGVGWIRQPSGKGLEWLAHIWWDDDKYYNPSLKSQLTISKDTSRNQVFLKITSVDTADTATYYCARRGLRRGDYFDYWGQGTTLTVSS VL: DVLMTQTPLSLPVSLGDQASISCRSSQSIVHSNGNTYLEWYLQKPGQSPKLLIYKVSNRFSGVPDRFSGSGSGTDFTLKISRVEAEDLGVYYCFQGSHVPLTFGAGTKLELK | 7.37 | 0.00188 | 255000 |
| IR-099 antibody (antibody, V domains shown, Mouse monoclonal from a hybridoma) VH: DVQLVESGGGLVQPGGSRKLSCAASGFTFSRFGMHWVRQAPEKGLEWVAYISSGRSTIYYADTVKGRFTISRDNPKNTLFLQMTSLRSEDTAMYYCARGGGNYVGAMDYWGQGTSVTVSS VL: DAVMTQTPLSLPVSLGDQASISCRSSQSLENSNGNTYLNWYLQKPGQSPQLLIYRVSNRFSGVLDRFSGSGSGTDFTLKISRVEAEDLGVYFCLQVTHVPPTFGGGTKLEIK | 9.3 | 0.00252 | 271000 |

The next lines start with the values.

| Kd [nM] | koff [s⁻¹] | kon [M⁻¹ s⁻¹] | Binder |
| --- | --- | --- | --- |
| 43.9 | 0.00571 | 130000 | IR-103 antibody (antibody, V domains shown, Mouse monoclonal from a hybridoma) VH: DVQLVESGGGLVQPGGSRKLSCAASGFTFSSFGMHWVRQAPEKGLEWVAYISSGSSTIYYADTVKGRFTISRDNPKNTLFLQMTSLRSEDTAMYYCARSPLLRLQGLAYWGQGTLVTVSA VL: DVLMTQTPLSLPVSLGDQASISCRSSQSIVHSNGNTYLEWYLQKPGQSPKLLIYKVSNRFSGVPDRFSGSGSGTDFTLKISRVEAEDLGVYYCFQGSHVPPTFGGGTKLEIK |
| 667 | 0.11 | 165000 | IR-130 antibody (antibody, V domains shown, Mouse monoclonal from a hybridoma) VH: EVKLVESGGGLVQPGGSLKLSCATSGFTFSDYYMYWVRQTPEKRLEWVAYISNGGGSTYYPDTVKGRFTISRDNAKNTLYLQMSRLKSEDTAMYYCARGTSYGSSLHYYAMDYWGQGTSVTVSS VL: DVVMTQTPLSLPVSLGDQASISCRSSQSLVHSNGNTYLHWYLQKPGQSPKLLIYKVSNRFSGVPDRFSGSGSGTDFTLKISRVEAEDLGVYFCSQSTHVPLTFGAGTKLELK |
| 38.6 | 0.000931 | 24100 | IR-148 antibody (antibody, V domains shown, Mouse monoclonal from a hybridoma) VH: DVQLVESGGGLVQPGGSRKLSCAASGFTFSSFGMHWVRQAPEKGLEWVAYISSGSSTIYYADTVKGRFTISRDNPKNTLFLQMTSLRSEDTAMYYCARDYYGMDYWGQGTSVTVSS VL: DVVMTQTPLSLPVSLGDQASISCRSSQSLVHSNGNTYLHWYLQKPGQSPKLLIYKVSNRFSGVPDRFSGSGSGTDFTLKISRVEAEDLGVYFCSQSTHVPLTFGAGTKLELK |
